Results on 1 substance are retold here after EP4534102A1, “ANTIBODY DRUG CONJUGATE (ADC) TARGETING NECTIN 4 AND COMPRISING AN EXATECAN PAYLOAD” (Eli Lilly and Company, priority 2023, dated 2025).

The nature of the data set: Aggregation by SEC-HPLC. It is filed as physicochemical. As to the method: As determined by SEC-HPLC, less than 5% material was aggregated. […] (See Figure 2 and corresponding Brief Description). […] (See Figure 3 and corresponding Brief Description). In vitro cytotoxic activity was assessed for the HCT-116-2G10 clone expressing human nectin-4. (See Figure 4 and corresponding Brief Description).
As a comparator ADC, the HA22 anti-Nectin-4 mAb was conjugated to maleimidocaproyl-valine-citrulline-PABC-MMAE to generate enfortumab vedotin. Briefly, a 15 mg/mL solution of the HA22 in 10 mM acetate 1% sorbitol, 3% L-arginine, pH 5.0 was supplemented with a 20% volume of 0.1 M Tris, 25 mM EDTA and 750 mM NaCl, pH 8.4 to adjust the pH of the solution to 7.5, 5 mM EDTA and 150 mM sodium chloride. […] The mixture was stirred for 60 minutes at 5° C, then for 15 additional minutes following the addition of 1 molar equivalents of N-acetylcysteine relative to cysteine reactive linker-MMAE compound. Excess quenched cysteine reactive linker-payload and other reaction components were removed by ultrafiltration/diafiltration of the antibody drug conjugate (ADC) with 10 volumes of 20 mM histidine, pH 6.0. The drug-antibody ratio (DAR) according to LC-MS analysis was 3.79 toxins per conjugated mAb. As determined by SEC-HPLC, less than 1% material was aggregated.

With “enfortumab vedotin: HA22 anti-Nectin-4 mAb conjugated to maleimidocaproyl-valine-citrulline-PABC-MMAE; comparator ADC”, the material aggregated entry is “less than 1%”.
